Laboratory results taken from US20190119407A1 (Amgen, published 2019).
Changes are numbered by the printed parent chain. Each block holds one binder with its values, some of them ahead of it.

What was measured:
[1] = target: T1, human TNF-α (human, UniProt P01375 77-233); assay: SPR, bispecific captured on anti-human Fc chip, TNF injected, 1:1 model
T1 construct: also called Hu TNF; soluble hu TNF
Method: Goat anti-human Fc was first immobilized on SCM5 sensor chip using amine coupling. […] On rate, off rate and equilibrium dissociation constant were calculated using 1:1 binding model on BIAevaluation software.

[2] = target: T2, human TL1A (human, UniProt O95150 72-251, limits assumed); assay: SPR, bispecific captured on anti-human Fc chip, TL1A injected, 1:1 model
T2 construct: The assays name only 'human TL1A protein'; also called huTL1A; Hu TL1A
T2 sequence (looked up): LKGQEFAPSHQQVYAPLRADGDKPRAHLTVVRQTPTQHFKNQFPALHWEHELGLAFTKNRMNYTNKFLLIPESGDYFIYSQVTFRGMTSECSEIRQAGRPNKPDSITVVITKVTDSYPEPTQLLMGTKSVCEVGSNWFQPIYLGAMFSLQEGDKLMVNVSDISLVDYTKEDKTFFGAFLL
Method: (§1) On rate, off rate and equilibrium dissociation constant were calculated using 1:1 binding model on BIAevaluation software.

[3] = target: T2, human TL1A; assay: SPR, Fab captured on anti-huFab chip, TL1A injected, 1:1 model
Method: as §1

[4] = target: T3, cynomolgus TL1A (cynomolgus monkey, UniProt G7PRK8 72-251); assay: SPR, Fab captured on anti-huFab chip, TL1A injected
T3 construct: also called cyno TL1A; cynomolgus monkey TL1A
T3 sequence: T2 sequence (looked up) with F39L, I78V
Method: as §1

[5] = target: T2, human TL1A; assay: cell-based or functional assay
[6] = target: T3, cynomolgus TL1A; assay: cell-based or functional assay
[7] = target: T2, human TL1A; assay: SPR, mAb captured on anti-human Fc chip, TL1A injected, 1:1 model
Method: as §1

[8] = target: T3, cynomolgus TL1A; assay: as above
Method: as §1

[9] = target: T3, cynomolgus TL1A; assay: SPR, Fab captured on anti-huFab chip, TL1A injected, 1:1 model
Method: as §1

T1 sequence (P01375 77-233 limits assumed): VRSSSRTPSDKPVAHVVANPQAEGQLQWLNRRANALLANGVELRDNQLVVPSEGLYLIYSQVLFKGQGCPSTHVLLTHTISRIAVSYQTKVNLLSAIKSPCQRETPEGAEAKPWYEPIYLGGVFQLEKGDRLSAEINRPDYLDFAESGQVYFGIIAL

Kd [1]: 0.019 nM | koff [1]: 6.4e-05 s⁻¹ | kon [1]: 3.4e+06 M⁻¹ s⁻¹ | Kd [2]: 0.25 nM | koff [2]: 0.00013 s⁻¹ | kon [2]: 540000 M⁻¹ s⁻¹
B1: hetero Ig certolizumab var/2G11 var, iPS 349461 (bispecific antibody, human IgG1, kappa, N297G)
light 1: not shown
heavy 1: not shown
light 2: DIQMTQSPSSLSASVGDRVTITCRASQSINNYLNWYQKKPGKAPKLLIYATSSLQSGVPSRFSGSGSGTDFSLTISSLQPEDFATYFCQQSYSTPRTFGQGTKVEIKRTVAAPSVFIFPPSDEQLKSGTASVVCLLNNFYPREAKVQWKVDNALQSGNSQESVTEQDSKDSTYSLKSTLTLSKADYEKHKVYACEVTHQGLSSPVTKSFNRGEC
heavy 2: QVQLQESGPGLVKPSETLSLTCTVSGGSISSYFWSWIREPPGKGLEWIGYIYYSGSTNYNPSLKSRVTMSIDTSKNQFSLKLSSVTAADTAVYYCAREIGSYYGFDYWGQGTLVTVSSASTKGPSVFPLAPSSKSTSGGTAALGCLVKDYFPEPVTVSWNSGALTSGVHTFPAVLQSSGLYSLESVVTVPSSSLGTQTYICNVNHKPSNTKVDKKVEPKSCDKTHTCPPCPAPELLGGPSVFLFPPKPKDTLMISRTPEVTCVVVDVSHEDPEVKFNWYVDGVEVHNAKTKPCEEQYGSTYRCVSVLTVLHQDWLNGKEYKCKVSNKALPAPIEKTISKAKGQPREPQVYTLPPSRKEMTKNQVSLTCLVKGFYPSDIAVEWESNGQPENNYKTTPPVLKSDGSFFLYSKLTVDKSRWQQGNVFSCSVMHEALHNHYTQKSLSLSPGK
notes: Heterotetramer with one arm against TNF-α and one against TL1A; also called PL-42787

Kd [1]: 0.016 nM | koff [1]: 5.5e-05 s⁻¹ | kon [1]: 3.4e+06 M⁻¹ s⁻¹ | Kd [2]: 0.64 nM | koff [2]: 0.0004 s⁻¹ | kon [2]: 630000 M⁻¹ s⁻¹
B2: hetero Ig certolizumab var/23B3 VH4, iPS 349463 (bispecific antibody, human IgG1, kappa, N297G)
light 1: not shown
heavy 1: not shown
light 2: not shown
heavy 2: QVQLQESGPGLVKPSETLSLTCTISGDSVSTNSVAWNWIREPPGKGLEWIGRTYYRSKWYNDYAVSLKSRVTISPDTSKNQFSLKLSSVTAADTAVYYCAREDGDSYYRYGMDVWGQGTTVTVSSASTKGPSVFPLAPSSKSTSGGTAALGCLVKDYFPEPVTVSWNSGALTSGVHTFPAVLQSSGLYSLESVVTVPSSSLGTQTYICNVNHKPSNTKVDKKVEPKSCDKTHTCPPCPAPELLGGPSVFLFPPKPKDTLMISRTPEVTCVVVDVSHEDPEVKFNWYVDGVEVHNAKTKPCEEQYGSTYRCVSVLTVLHQDWLNGKEYKCKVSNKALPAPIEKTISKAKGQPREPQVYTLPPSRKEMTKNQVSLTCLVKGFYPSDIAVEWESNGQPENNYKTTPPVLKSDGSFFLYSKLTVDKSRWQQGNVFSCSVMHEALHNHYTQKSLSLSPGK
notes: Heterotetramer with one arm against TNF-α and one against TL1A; also called PL-42788

Kd [3]: < 0.1 nM | koff [3]: < 5e-05 s⁻¹ | binding result [4]: no binding (tested: 100 nM) | NF-kB IC50 nM, huTL1A (0.2 nM) [5]: 0.162 nM | NF-kB IC50 nM, cyno TL1A (2 nM) [6]: > 100 nM
B3: anti-TL1A Fab 3C6 (Fab, V domains shown)
VH: QVQLVESGGGVVQPGRSLRLSCAASGFTFSSYGMHWVRQAPGKGLEWVAVISYDGNNKLYTDSVKGRFTISRDDSKSTLYLQMNSLRAEDTAVYYCARDPTVTLYYYYGMDVWGQGTTVTVSS
VL: DIQMTQSPSSLSASVGDRVTITCRTSQDIRDDLGWYQQKPGKAPKRLIYDASSLQSGVPSRFSGSGSGTEFTLTISSLQPEDFATYYCLQHNSYPPTFGQGTKVEIK
notes: Fab fragment; the Fab's constant parts are not; also called 3C6 Fab; PL-39193

Kd [7]: 0.22 nM | koff [7]: 5.3e-05 s⁻¹ | kon [7]: 250000 M⁻¹ s⁻¹ | Kd [8]: 2.8 nM | koff [8]: 0.002 s⁻¹ | kon [8]: 730000 M⁻¹ s⁻¹ | NF-kB IC50 nM, huTL1A (0.2 nM) [5]: 0.168 nM | NF-kB IC50 nM, cyno TL1A (2 nM) [6]: > 100 nM
B4: anti-TL1A mAb 17E9 (antibody, human IgG1, kappa, N297G, V domains shown)
VH: B3 VH with F29L, I51M, T61A, D74N, S77K, P100E, V102E, M110I
VL: DIQMTQSPSSLSASVGDRVTITCRASQGISNDLAWYQQKPGKAPKRLIFAASSLQSGVPSRFSGSGSGTEFTLTISSLQPEDFATYYCLQHNSYPPTFGGGTKVEIKR
notes: also called PL-39113; iPS 284078

Kd [3]: < 0.1 nM | koff [3]: < 5e-05 s⁻¹ | binding result [4]: no binding (tested: 100 nM) | NF-kB IC50 nM, huTL1A (0.2 nM) [5]: 70.8 nM | NF-kB IC50 nM, cyno TL1A (2 nM) [6]: > 100 nM
B5: anti-TL1A Fab 17E9 (Fab, V domains shown)
VH: B3 VH with F29L, I51M, T61A, D74N, S77K, P100E, V102E, M110I
VL: B3 VL with T25A, D28G, R30S, D31N, G34A, Y49F, D50A, Q100G
notes: Fab fragment; the Fab's constant parts are not; also called 17E9 Fab; PL-39194

Kd [3]: 0.85 nM | koff [3]: 0.00064 s⁻¹ | kon [3]: 760000 M⁻¹ s⁻¹ | Kd [9]: 0.31 nM | koff [9]: 0.00016 s⁻¹ | kon [9]: 530000 M⁻¹ s⁻¹ | NF-kB IC50 nM, huTL1A (0.2 nM) [5]: 2.99 nM | NF-kB IC50 nM, cyno TL1A (2 nM) [6]: 2.63 nM
B6: anti-TL1A Fab 23B3 (Fab, V domains shown)
VH: QVQLQQSGPGLVKPSQTLSLTCVISGDSVSTNSVAWNWIRQSPSRGLEWLGRTYYRSKWYNDYAVSVKSRITINPDTSKNQFSLQLNSVTPEDTAVYYCAREDGDSYYRYGMDVWGQGTTVTVSS
VL: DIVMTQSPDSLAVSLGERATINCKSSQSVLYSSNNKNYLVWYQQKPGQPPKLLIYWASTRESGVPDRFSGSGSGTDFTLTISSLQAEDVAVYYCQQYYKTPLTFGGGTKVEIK
notes: Fab fragment; the Fab's constant parts are not; also called 23B3 Fab; PL-38024
